Reference: patent US20100298415

Assays:
Test in all cases: competition
Conditions in all cases: PS three linkages at 5' and 3' ends of both strands; 5' C6 amino linker conjugated to Co(III) Schiff base; not inhibited at 1 uM; EMSA
[1] = biological target: Lef-1 (UniProt Q9UJU2)
[2] = biological target: T1, MitF (UniProt O75030)
T1 sequence: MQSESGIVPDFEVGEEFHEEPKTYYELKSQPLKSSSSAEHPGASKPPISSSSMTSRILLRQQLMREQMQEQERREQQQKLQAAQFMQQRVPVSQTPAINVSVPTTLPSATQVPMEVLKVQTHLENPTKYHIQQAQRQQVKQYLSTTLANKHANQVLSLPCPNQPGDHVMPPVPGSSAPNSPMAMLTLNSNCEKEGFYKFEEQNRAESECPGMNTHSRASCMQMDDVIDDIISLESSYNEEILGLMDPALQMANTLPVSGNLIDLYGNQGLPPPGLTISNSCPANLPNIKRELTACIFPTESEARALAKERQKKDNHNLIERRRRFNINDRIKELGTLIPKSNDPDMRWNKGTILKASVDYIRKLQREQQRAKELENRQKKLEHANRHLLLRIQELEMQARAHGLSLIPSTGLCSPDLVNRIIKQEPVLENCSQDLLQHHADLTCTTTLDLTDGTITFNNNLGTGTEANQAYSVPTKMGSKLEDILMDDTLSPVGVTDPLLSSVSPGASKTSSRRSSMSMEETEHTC

[3] = biological target: T2, p105 (NF-kB) (UniProt P19838)
T2 sequence: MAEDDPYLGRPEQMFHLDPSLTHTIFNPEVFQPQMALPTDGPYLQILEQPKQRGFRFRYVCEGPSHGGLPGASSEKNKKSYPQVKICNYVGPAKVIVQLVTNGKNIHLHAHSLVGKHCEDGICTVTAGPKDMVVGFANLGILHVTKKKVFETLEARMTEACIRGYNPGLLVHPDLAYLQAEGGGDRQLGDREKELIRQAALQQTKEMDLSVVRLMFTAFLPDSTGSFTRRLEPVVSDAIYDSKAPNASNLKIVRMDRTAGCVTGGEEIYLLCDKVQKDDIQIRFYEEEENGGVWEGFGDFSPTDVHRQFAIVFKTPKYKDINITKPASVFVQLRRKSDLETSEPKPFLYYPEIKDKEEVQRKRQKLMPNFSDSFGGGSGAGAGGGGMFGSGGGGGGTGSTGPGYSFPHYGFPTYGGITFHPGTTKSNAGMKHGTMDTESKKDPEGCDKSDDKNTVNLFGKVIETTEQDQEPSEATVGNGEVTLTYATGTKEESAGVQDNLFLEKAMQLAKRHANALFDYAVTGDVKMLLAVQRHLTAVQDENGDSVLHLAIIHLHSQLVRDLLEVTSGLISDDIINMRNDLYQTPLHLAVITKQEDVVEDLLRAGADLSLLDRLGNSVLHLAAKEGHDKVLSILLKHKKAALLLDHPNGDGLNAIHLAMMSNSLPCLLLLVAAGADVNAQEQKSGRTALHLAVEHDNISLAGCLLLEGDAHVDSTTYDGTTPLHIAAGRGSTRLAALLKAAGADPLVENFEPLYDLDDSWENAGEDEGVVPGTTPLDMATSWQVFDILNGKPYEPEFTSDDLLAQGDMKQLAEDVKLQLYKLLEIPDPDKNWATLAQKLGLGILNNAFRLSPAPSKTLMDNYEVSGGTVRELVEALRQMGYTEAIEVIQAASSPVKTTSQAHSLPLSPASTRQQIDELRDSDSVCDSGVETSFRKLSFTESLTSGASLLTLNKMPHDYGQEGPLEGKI

Measured: activity

Chain of Lef-1 (Q9UJU2 whole entry): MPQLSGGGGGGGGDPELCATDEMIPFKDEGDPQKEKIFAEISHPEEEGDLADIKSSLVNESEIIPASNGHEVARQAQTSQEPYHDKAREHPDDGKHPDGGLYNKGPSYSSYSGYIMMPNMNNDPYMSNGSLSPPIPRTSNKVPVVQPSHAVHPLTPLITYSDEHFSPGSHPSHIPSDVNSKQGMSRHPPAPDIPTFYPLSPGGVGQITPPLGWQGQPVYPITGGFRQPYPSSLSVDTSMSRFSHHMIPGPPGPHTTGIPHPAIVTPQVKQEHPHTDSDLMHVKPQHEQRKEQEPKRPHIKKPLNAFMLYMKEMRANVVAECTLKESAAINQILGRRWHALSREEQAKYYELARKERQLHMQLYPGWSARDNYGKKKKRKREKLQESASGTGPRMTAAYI

TACGACAGGTGTTGGGA (double strand) [Co(III)-Ebox]
> 1 µM: all assays above
